Source: the supplement of paper PMC7877785
± gives the uncertainty stated by the source.

Assay: self-splicing fitness, log relative to wild type (ln ratio); higher = more splicing; Tetrahymena group I intron in knt gene, E. coli kanamycin selection, DiMSum; sequences stand for … in CUCUCU…GGAGGGAAAAGUUAUCAGGCAUGCACCUGGUAGCUAGUCUUUAAACCAAUAGAUUGCAUCGGUUUAAAAGGCAAGACCGUCAAAUUGCGGGAAAGGGGUCAACAGCCGUUCAGUACCAAGUCUCAGGGGAAACUUUGAGAUGGCCUUGCAAAGGGUAUGGUAAUAAGCUGACGGACAUGGUCCUAACCACGCAGCCAAGUCCUAAGUCAACAGAUCUUCUGUUGAUAUGGAUGCAGUUCACAGACUAAAUGUCGGUCGGGGAAGAUGUAUUCUUCUCAUAAGAUAUAGUCGGACCUCUCCUUAAUGGGAGCUAGCGGAUGAAGUGAUGCAACACUGGAGCCGCUGGGAACUAAUUUGUAUGCGAAAGUAUAUUGAUUAGUUUUGGAGUACUCGUGGUCG
Procedure, shortened: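 Fitness was computed with DiMSum as the error-weighted combination of replicate fold changes, kanamycin versus none, each normalised to wild type. The library randomised all eight intron nucleotides of the P1ex region, with the intron placed in the knt kanamycin-resistance gene on pET-22b(+) in E. coli BL21(DE3). Six replicate transformations were grown overnight at 37°C or 30°C on LB agar with or without 25 μg/mL kanamycin, plus 100 μg/mL carbenicillin, 50 μM IPTG and 0.2% rhamnose. Pooled colonies were amplicon-sequenced on an Illumina HiSeq 2500.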

Row | Sequence | self-splicing fitness (ln) (30 °C) | self-splicing fitness (ln) (37 °C)
1 | AGAAAGCAAUAUUACGGGCC | -1.66 ± 0.14 | -1.04 ± 0.13
2 | AAGGAGCAAUAUUACGACUU | -1.12 ± 0.086 | -1.26 ± 0.1
3 | UUAAAGCAAUAUUACGCUAG | -0.313 ± 0.092 | 0.141 ± 0.11
4 | UAUUAGCAAUAUUACGGUUU | -3.75 ± 0.37 | -2.08 ± 0.2
5 | AGCGAGCAAUAUUACGAUGC | -3.11 ± 0.45 | 
6 | AAGUAGCAAUAUUACGUGAG | -1.57 ± 0.048 | -0.575 ± 0.066
7 | UCAAAGCAAUAUUACGGAAG | -2.03 ± 0.17 | -2.38 ± 0.28
8 | ACUUAGCAAUAUUACGUUGA | -4.69 ± 0.36 | -2.06 ± 0.12
9 | AUCUAGCAAUAUUACGUAAU | -1.28 ± 0.098 | -1.37 ± 0.12
10 | GAUGAGCAAUAUUACGGUCG | -2.37 ± 0.12 | -0.405 ± 0.12
11 | GGUCAGCAAUAUUACGAGGA |  | -1.73 ± 0.36
12 | UGGUAGCAAUAUUACGGUUU | -2.64 ± 0.17 | -2.6 ± 0.23
13 | ACGUAGCAAUAUUACGCCCC | -1.38 ± 0.27 | -1.28 ± 0.29
14 | GCAAAGCAAUAUUACGGGUG | -1.23 ± 0.047 | -1.23 ± 0.057
15 | GGUCAGCAAUAUUACGACCG | -1.89 ± 0.17 | -1.26 ± 0.19
16 | AGCGAGCAAUAUUACGAGUG | -2.92 ± 0.25 | -2.12 ± 0.26
17 | UUUUAGCAAUAUUACGUGAA | -1.14 ± 0.074 | -0.89 ± 0.1
18 | CCUAAGCAAUAUUACGGGCC | -3.18 ± 0.27 | -2.12 ± 0.22
19 | UCGCAGCAAUAUUACGACGU | -1.46 ± 0.076 | -0.706 ± 0.074
20 | AGCAAGCAAUAUUACGUGUG | -2.9 ± 0.1 | -1.17 ± 0.081
21 | CUUUAGCAAUAUUACGGGGG | -4.05 ± 0.46 | -2.65 ± 0.45
22 | UAUUAGCAAUAUUACGACAC | -1.54 ± 0.14 | -1.92 ± 0.21
23 | GCCCAGCAAUAUUACGCAUU | -0.902 ± 0.05 | -0.248 ± 0.063
24 | UUAGAGCAAUAUUACGGUCU | -3.05 ± 0.41 | -2.66 ± 0.48
25 | AGCCAGCAAUAUUACGGGAA | -2.59 ± 0.19 | -0.667 ± 0.12

Row | Sequence | self-splicing fitness (ln) (30 °C) | self-splicing fitness (ln) (37 °C)
26 | CAGUAGCAAUAUUACGCUGU | -2.72 ± 0.17 | -2.99 ± 0.28
27 | CGGGAGCAAUAUUACGUGUG | -2.47 ± 0.16 | -0.316 ± 0.11
28 | GCUGAGCAAUAUUACGUCUU | -1.91 ± 0.11 | -1.17 ± 0.15
29 | CAUAAGCAAUAUUACGAGAG | -2.88 ± 0.18 | -1.32 ± 0.14
30 | UCGCAGCAAUAUUACGCUGC | -2.62 ± 0.49 | -0.264 ± 0.26
31 | UGUGAGCAAUAUUACGUUGU | -3.15 ± 0.25 | -3.13 ± 0.47
32 | UUGGAGCAAUAUUACGCACG | -1.33 ± 0.17 | -1.92 ± 0.29
33 | AUAGAGCAAUAUUACGCCUC | -1.52 ± 0.24 | -0.831 ± 0.5
34 | AAUUAGCAAUAUUACGAGAG | -3.43 ± 0.23 | -1.09 ± 0.18
35 | CAGAAGCAAUAUUACGCGGA | -3.15 ± 0.15 | -3.11 ± 0.17
36 | GAUUAGCAAUAUUACGAAAU | -2.4 ± 0.22 | 1.2 ± 0.2
37 | CUCAAGCAAUAUUACGCCUA | -2.82 ± 0.27 | -2.16 ± 0.28
38 | GGUCAGCAAUAUUACGGCCU | -2.84 ± 0.29 | -2.34 ± 0.45
39 | UCCUAGCAAUAUUACGUACU | -3.41 ± 0.3 | -2 ± 0.26
40 | CGGUAGCAAUAUUACGAUAA | -2.55 ± 0.21 | -1.61 ± 0.24
41 | GAGUAGCAAUAUUACGGUAC | -2.69 ± 0.37 | -2.01 ± 0.33
42 | UCUUAGCAAUAUUACGUGUU | -2.67 ± 0.15 | -2.3 ± 0.25
43 | ACAUAGCAAUAUUACGUCGG | -2.1 ± 0.099 | -1.16 ± 0.1
44 | UUAUAGCAAUAUUACGGUUG | -1.32 ± 0.12 | -0.629 ± 0.15
45 | CGCCAGCAAUAUUACGAGGU | -4.39 ± 0.28 | -1.89 ± 0.18
46 | AGCUAGCAAUAUUACGAUUA | -2.31 ± 0.21 | -0.806 ± 0.14
47 | UUCUAGCAAUAUUACGUCGG | -3.54 ± 0.26 | -3.1 ± 0.29
48 | UAUUAGCAAUAUUACGGCUA | -0.404 ± 0.15 | 0.399 ± 0.14
49 | CCUUAGCAAUAUUACGCUAU | -3.14 ± 0.14 | -2.64 ± 0.18
50 | AGGGAGCAAUAUUACGGCUA | -2.09 ± 0.21 | -2.17 ± 0.18

Row | Sequence | self-splicing fitness (ln) (30 °C) | self-splicing fitness (ln) (37 °C)
51 | CAUUAGCAAUAUUACGGGAU | -3.2 ± 0.19 | -2.92 ± 0.23
52 | GAUAAGCAAUAUUACGACCU | -0.864 ± 0.086 | 0.36 ± 0.1
53 | AGAUAGCAAUAUUACGGGAG | -2.43 ± 0.26 | -1.95 ± 0.23
54 | GCCUAGCAAUAUUACGCUUG | -2.37 ± 0.17 | -1.96 ± 0.26
55 | CCCUAGCAAUAUUACGGAGU | -4.58 ± 0.36 | -2.99 ± 0.35
56 | AGGAAGCAAUAUUACGAACG | -1.19 ± 0.14 | -0.0957 ± 0.18
57 | CUAGAGCAAUAUUACGGAAU | -3.15 ± 0.27 | -2.82 ± 0.38
58 | UUUCAGCAAUAUUACGGCCG | -0.936 ± 0.17 | -0.968 ± 0.26
59 | GGGAAGCAAUAUUACGUCCG | -1.81 ± 0.15 | -0.461 ± 0.18
60 | CAAAAGCAAUAUUACGAAAG | -0.791 ± 0.077 | -0.705 ± 0.097
61 | UUAGAGCAAUAUUACGUGUU | -4.76 ± 0.32 | -2.53 ± 0.28
62 | CUCCAGCAAUAUUACGGGUA | -1.35 ± 0.067 | -1.11 ± 0.08
63 | UAAUAGCAAUAUUACGUAAU | -3.25 ± 0.29 | -2.52 ± 0.34
64 | AGAAAGCAAUAUUACGGGAU | -1.14 ± 0.14 | -1.04 ± 0.12
65 | GUGUAGCAAUAUUACGACUG | -1.71 ± 0.25 | -1.47 ± 0.42
66 | GGGUAGCAAUAUUACGGUGU | -1.09 ± 0.095 | -0.365 ± 0.12
67 | AGGCAGCAAUAUUACGCGCA | -0.635 ± 0.07 | -0.0389 ± 0.098
68 | GUCUAGCAAUAUUACGAAGG | -2.34 ± 0.18 | -1.43 ± 0.16
69 | CCGGAGCAAUAUUACGUUUA |  | -1.99 ± 0.25
70 | AGUGAGCAAUAUUACGAUCA | -1.64 ± 0.13 | -0.675 ± 0.16
71 | UUUUAGCAAUAUUACGCGCG | -0.432 ± 0.11 | -0.122 ± 0.15
72 | CUAAAGCAAUAUUACGCCGA | -3.46 ± 0.24 | -2.42 ± 0.25
73 | GGGCAGCAAUAUUACGAGCA | -1.98 ± 0.1 | -1.37 ± 0.11
74 | GCUAAGCAAUAUUACGUUUA | -2.9 ± 0.24 | -1.69 ± 0.21
75 | GAUUAGCAAUAUUACGUUGG | -4.17 ± 0.27 | -2.16 ± 0.18
